The assay deals with cynomolgus heparanase (cynomolgus). As to the kind of experiment: cross species capture ELISA, heparanase captured by rabbit anti-heparanase antibody, exhaustive supernatant 1:5, anti-human IgG Fc detection.
Chain of cynomolgus heparanase (cynomolgus) (chain, as listed by the source): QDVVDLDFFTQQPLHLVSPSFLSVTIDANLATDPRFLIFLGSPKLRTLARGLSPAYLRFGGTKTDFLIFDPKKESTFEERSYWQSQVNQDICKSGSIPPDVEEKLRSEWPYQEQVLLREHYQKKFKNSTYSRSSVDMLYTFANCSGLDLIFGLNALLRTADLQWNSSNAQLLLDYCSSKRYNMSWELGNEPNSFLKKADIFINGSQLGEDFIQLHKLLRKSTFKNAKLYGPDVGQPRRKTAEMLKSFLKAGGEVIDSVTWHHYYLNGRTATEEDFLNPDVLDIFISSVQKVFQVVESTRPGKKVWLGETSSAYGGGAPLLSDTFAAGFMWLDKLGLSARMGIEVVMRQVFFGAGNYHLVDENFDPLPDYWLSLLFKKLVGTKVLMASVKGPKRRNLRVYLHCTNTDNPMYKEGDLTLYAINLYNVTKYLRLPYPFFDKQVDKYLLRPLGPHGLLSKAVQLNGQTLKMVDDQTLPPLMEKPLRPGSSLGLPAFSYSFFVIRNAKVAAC

B1: monoclonal antibody 15A1.2 (antibody, V domains shown)
VH: QVQLVQSGAEVKKPGASVKVSCKVSGYTLTELSMHWVRQAPGKGLEWMGGFDPEDGETIFAQKFQGRVTMTEDTSTDTAYMELSSLRSEDTAVYYCATGLRFLEWFLWGWDVWGQGTTVTVSS
VL: DIQMTQSPSSVSASVGDRVTITCRASQGISNWLAWYQQTPGKAPQLLIYGASSLQSGVPSRFSGSGSGTDFTLTISSLQPEDFATYYCQQADSFPPTFGQGTKVEIK
In the case of B1, the OD, binding to heparanase (Cyno) was 0.11 OD units.

The values above are taken from patent US20100233154A1, “TARGETED BINDING AGENTS DIRECTED TO HEPARANASE AND USES THEREOF 463” (MedImmune Limited, priority 2008, published 2010).
